Assay [1] has as its target C97ZA_SOSIP_L556P_T651F_M535N (HIV-1 strain C97ZA (clade C)). In words: AlphaLISA on crude supernatant as in Example 3: normalized PGT145 signal.
The target in assay [2] is variant of repaired and stabilized Du422 construct (HIV161818) with the additional K655I substitution (HIV-1 strain Du422 (clade C)). In words: assay not named in Example 11; trimer percentage as defined in Example 3 (PGT145 AlphaLISA signal over total Env signal).
Assay [3] shares this target. As to the kind of experiment: assay not named in Example 11; trimer yield as defined in Example 3 (PGT145 AlphaLISA signal).
The target of assay [4] is ConC_SOSIP with disulfide double substitution I204C, A433C (HIV-1 clade C consensus (artificial)). In words: AlphaLISA on crude supernatant: PGT145 signal divided by total Env signal (His/Flag beads).
In assay [5] the target is ConC_SOSIP with E64K, T316W double substitution (HIV-1 clade C consensus (artificial)). Described as above.

As to mAb PGT145 (antibody), the trimer yield, fold over the C97ZA SOSIP backbone in assay [1] is 5 fold. In assay [2], this substance displayed a trimer percentage, fold over the variant of SEQ ID NO: 25 without K655I of 1.4 fold. In addition, the trimer yield, fold over the variant of SEQ ID NO: 25 without K655I in assay [3] is 1.3 fold. Moreover, the results for the percentage of trimer formation in assay [4] and in assay [5] were 43% and 15%, respectively.

The record behind these values is patent US20220315627A1.
